The test concerns the target SARS-CoV-2 main protease (Mpro) H172Y (SARS-CoV-2).

This passage reports Michaelis constant Km, FRET-based cleavage assay (400 nM enzyme, substrate 10 to 320 μM, 20 mM HEPES, 120 mM NaCl, pH 7.0) results from publication doi:10.1101/2022.07.31.502215.

The substance “Dabcyl-KTSAVLQ↓SGFRKM-E(Edans)-NH2 FRET substrate (peptide)” yielded a Michaelis constant Km, FRET-based cleavage assay (400 nM enzyme, substrate 10 to 320 μM, 20 mM HEPES, 120 mM NaCl, pH 7.0) of 803 μM.
